Assay: yeast display, Sf9 membrane polyspecificity reagent, FACS + sequencing; frameworks hold sequencing errors
Summary of the method: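 A nanobody's polyreactivity label depends on the gate it was sorted from. Yeast display cells were stained with 10% biotinylated, detergent-solubilized Sf9 membrane reagent for 1 hour at 4 °C, enriched on streptavidin microbeads and sorted by FACS. The low and high (top ~1%) gates were set on anti-HA fluorescence for expression and streptavidin fluorescence for reagent binding.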

Sequence	polyreactivity (PSR sort gate)
QVQLVESGGVLVQAGGSLRLSCAASGSTFGANAMGWNREAPGKEREFVAAISGSGTTTYYADSVKGRFTISRDNAKNSVYLHLNSLKQEDTAVYYCAKTRKAHWLEYWGQGTKVTVSS	low polyreactivity
QVQLVETGGGLVHAGGSLRLSCAASGITFTTNTMGWYRQAPGKERELVAAISSTGGNTFYADSVKGRFTISRDNAKNTVYLQMNSLKPEDTAVYYCSYVPSNARGEYDSWGQGTQVTVSS	low polyreactivity
QVQLVESGGGLVQAGGSLRLSCAASGLIFSYSALAWYRQAPGKERELVGSMSTSGGNTNYADSVKGRFTISRDNAKNTVYVQMNSVKPVDTAVYYCAAGIGKQYHTGYPTAGRKYGYWGQGTQVTVSS	high polyreactivity
QVELVASGGGLVQAGGSLRIRCAASGGIFDGNAKGWYRQAPGKEREMVAAISSGGITKYAASVKGRFTISRDNAQYTVYLQMNSLKPEDSAVYYCAASWDRYRFIRNDYWGQGTQVTVSS	high polyreactivity
QVQLEESGAGLVQAGGSLRLSCAASVFTFCCTTMGRSRPAPGKESELVATISRTGGITYYADSVKGRFTISRDNAKNTVNLQMNSLKPEDTAVYYCILRYYWGQVTQVTVSS	high polyreactivity
QVQLVESGGGLVQAGGSLRLSCAASGFTFVPYAMGWYRQAPGKERELVAAISSTGGSTYYADSVKGRFTISRDNAKNTVYLQMNSLKPEDTAVYYCAAKITRRYYPGYLFDSWGQGTQVTVSS	high polyreactivity
QVQLVESGGGLVQAGGSLRLICAASGSTFGLNTMGWYRQAPGKDRELVAGITWSGGTTYYADSVKGRFTISRDNAKNTVYLQMNSLKPEDTAVYYCAAAVCDHYWYSRAYYYWGQGTQVTLSS	high polyreactivity
QVQLVESGGGLVQAGGSLRLSFAASGSTFPKYAMRGYRPAPGKQRELVASISVTTGSTNYADSEKGRFTISRDNAKNTVYLQMNSLKPEDTAVYYCAADTVYRTHHYAQHYYYWGQGTLVTVSS	high polyreactivity
QVQLEESGGGLVQAGGSLRLSCAASGSIFRWNAMGWSRQAPGKERELVAAISSGTSTNYADSVKGRFTISRDNAKNTVYVQMNSQKPEDTAVYYCAARGRKNQRRYGYWGQGTQVTVSS	low polyreactivity
QVQLVESAGGLVQAGGSLRLSCDASGLTYSYYAMGWYIQAPGKERELVAAISWSGGSTYYADSVNGRFTISRDNAKNTVYLQMNSLKPEDTAVYYCAKYPNRHYWYDYWGQGTQVTVSS	low polyreactivity
QVQLVESGGGLVQAGGSLRLSCAASGRIFLSYTMGSYRQAPGKERELVAAISRGGRTYYADSVKGRFTISLDNAKNTVYLQMNSLKPEDTAVYYCAKKYGRYGSLRGRTIDDYWGQGTEVTVSS	low polyreactivity
QVQLVESGVGLVQAGGSLRLSCAASGSTFGRYAMGWYRQAPGKERELVARISWGGGSTYYADSVKGRFTISRDNAKNTVYILMISLKPEDSAVYDCATRVYRSAVSYDYWGQGTQVTVSS	high polyreactivity
QVQLVESGGGLVQAGGSLRLSCAASGSTFVVNAMVWYRQAPGKERELVAAITQDGDGTYYADSVKGRFTISRDNAKNTVYLQMNSLKPEDTAVYYCAAYPFYGPYDEFDYWGQGTQVTVSS	low polyreactivity
QVQLEESGGGLVQAGGSLRLSCAASGSIFVGYDMGWYRQAPGKVWELVAAITSSGVGSTYYADSVKGRFTISRDNAKNTVYLQMNSLKPEDTAVYYCAARTSLWWFLKYDYWGEGTQVTVSS	low polyreactivity
QVQLVESGGGLVQAGGSLRLSCAASGRTLRLYAMGWYRPAPGKERELVASITGRGGSTYYADSVKGRFTISRDNAKNTVYLQMNSLKPEDTAVYYCAKLPLSTAMGYWGQGTQVTVSS	low polyreactivity
QVQLVESGGGLVQAGGSLRLSCAASGNIFPMNAMGWYIEAPGKERELVAAISYSGTSTYYADSVKGRFTISRDKAKNTVYLQMNSLKPEDTAVYYCAARVQRLNLGDYNYWGQGTQVTVSS	low polyreactivity
QVQLVESGGGLVQAGGSLRLSCAASGIIFDGNVMGWYRQAPGKEREFVASISISGGSTSYADSVKGRFTISRDNAKNTVYLQMNSLKPEDTAVYYCNTDVGYGRVWRWRYHGDYWGQGTQVTVSS	low polyreactivity
QVQHVESGGGLVQAGGSLRLSCAASGLIFSWTAMGWYRQAPGKERELVASISYSGGRTYYADSVKGRFTISRDNAKNTVYLQMNSLKPEDTAVYYCAADTNATTDPEMDYWGQGTQVTVSS	low polyreactivity
QVQLVESGVGLVQAVGSLRLSSPTSGIIFRYYSMVWYRHAPGKESEYVAVITRRGGGTYYAYSVKGRFTISRDNAKNTVYFEMNSLKPEDTAVYYCAKDFTGHYPKGFDYWGQGTQVTVSS	low polyreactivity
QVQLEESGGGLVQAGGSLRLSCAASGSTFFPYAMGWYRQAPGKERELVAGISSDGGTSYADSVKGRFTISRDTAKNTVYLQMNSLKPEDTAVYYCNARAVNVRDYINYDYWGQGTQVTVSS	low polyreactivity
QVQLVESGGGLVQAGGSLRLSCAASGRTFKRNAMGWYRQAPGKERELVAGISTGGSTNYADSVKGRFTISRDNAKNTVYLQMNSLKPEDTAVYYCAARYRTDWTPGYHVGYYYWGQGTQVTVSS	high polyreactivity
QVQLVETGGGLVQAGGSLRLSCAASGRTFKGYAMGWYRQSPGKERELVAGISRGAGRTYYADSVKGRFTISRDNAKNTVYLQMNSLKPEDTEVYYCAAVPSYHSTSPFYYWGQGTQVTVSS	high polyreactivity

Sequence	polyreactivity (PSR sort gate)
QVQLVDSGGGLVQAGGSLRLSCAASGFTFTLNAMGWYRQAPGKERELVAGISSGGSTNYADSVKGRFTISRDNAKNTVYLQMNSLKPEDTAVYYCAADRGYVWRYDYWGEGTQVTVSS	low polyreactivity
QVQLVESGGGLVQAGGSLRLSCAASGSTFQLYAMGWYRQAPGKERELVAGISRDGSTYYADSVKGRFTISRDNAKNTVYLQMNSLKPEDTAVYYCAAKYYGNKRDLYYWGQGTQVTVSS	low polyreactivity
QVQLVESGGGLVQAGGSLRLSCAASGFIFEYNAMGWYRQAPGKERELVAAITSSGGSTYYADSVKGRFTISRDNAKNTVYLQMNSLKPEDTAVYYCARVRRSAYYKDYYYWGQGTQVTVSS	high polyreactivity
QVQLVESGGGLVQAGGSLRLSCAACGSIFLKYVMGWYRQAPGKERELVAAISFRSGSTYYADSVKGRFTISRDNAKNTVYVQMNSLKPEDTAVYYCAASWTPRYLGFDHWGQGSQVTVSS	high polyreactivity
QVQLVESGGGLVQAGGSLRLSCAASGRIFHFNAMGWYRQAPGTEKELVATITKRGGRTYYADSVKGRFTISRDNAKNTVYLQMNSLKPDDTAVYYCNADQTRYSAVSGYDYWGQGTQVTVSS	high polyreactivity
QVQLVETGGGLVQAGGSLRLSCAASGSTFPAYTMGWYRQAPGKERELVAAITTGGRTYYADSVKGRFTISRDNAKNTVYLQMNSLKPEDTAVYYCAAKRYCYRSLPYYGIHGWGQGTQVTVSS	high polyreactivity
QVQLVESGGGLVQAGGSLRLSCAASGLTLYQYSMGWYRQAPGKERELVAAIPTSGSTYFADSVKGRFTISRDNAKNTVYLQMNSLKPEDTAVYYCAADVYYVDTLSGYRYGYDYWGQCTQVTVSS	low polyreactivity
QVQLVESGGGLVQAGGSLRLSCAASGRTFTIYARGWYRQAPGKERELVAAITSGGSTYYADSVKGRFTISRDNAKNTVYLQMNSLKPEDTAVYYCDRGYAVSLVSRYDYWGQGTQVTVSS	low polyreactivity
QVQLVESGGGLVQAGGSLRLSSAASGSIFVHYAMGWYRQAPGKEREFVAAISRGGGTTYYADSVKGRFTISRDNAKNTVYLQLNCLKPEDNAVYYCNAVRFFEHDYWGQGTQVTVSS	high polyreactivity
QVQLVESGGGLVQAGGSLRLSCAASGSIFGTYAMGWYRQAPGKEREMVARITSGGSTNYADSVKGRFTISRDNAKNTVFLQMNSLKPEDTAVYYCAARQYHWYLPSYWYRYDYWGQGTLVTVSS	high polyreactivity
QVQLVESGGGLVQAGGSLRLSCAASGSIFYRYAMGWYRQAPGKERELVASISKSGGSTYYADSVKGRFTISRDNAKNTVYLQMNSLKPEDTAVYYCAKKPRGTVYRFDYWGQGTQVTVSS	high polyreactivity
QVQLVESGGGLVQAGGSLRLSCAASGRTFWIYGMGWYRQAPGKERELVAAITRSGGSTNYADSVKGRFTISRDNAKNTVYLQMKSLKPEDTAVYYCAADTWYPGYYAYDYWGQGTQVTVSS	high polyreactivity
EVQLVESGGGLVQAGGSLRLSCAASVSTFGSNAMGWYRQAPGKERELVAAITNGGSTNYADSVKGRFTISRDNEKNTVYLQMNSLKPEDTAVYYCNAVQSAYNKFWIALWGGYWGQGTQVTVSS	low polyreactivity
QVQLVESGGGLVQAGGSLRLSCAASGFSLRNNAMGWYRPAPGKERELVAGITSGGRTNYADSVKGRFTISRDNAKNTVYLQMNSLKPEHTAVYYCAKRVWPRDQYGKRNPRMDYWGQGTLVTVSS	high polyreactivity
QVQLVESGGGLVQAGGSLRLSCAASGFTFGWYAMGWYRPAPGKERELVAAITTSGGRTNYADSVKGRFTISRDNAKNTVYLQMNSLKPEDTAVYYCNADSPYYVGGFDYWGQGTQVTVSS	low polyreactivity
QVQLKESGVGLVQAGGSLRLSCAASGTIYWLWSMGWYCQAPGKERELVASISSGGTTYHADSVKGRFTISRDNAKNTVYLQMNSLNPEDTAVYYSAAFYVATAKLGYWGQGSQVTVSS	low polyreactivity
QVQLVESGGGLVHAGGSLRLSCAASGSTFYENAMGWYRQAPGKERELVAAITWSGGRTYYADSVKGRFTISRDNAKNTVYLQMNSLKPEDTAVYYCAAGLFVGFDYWGQGTQVTVSS	high polyreactivity
QVQLVESGGGLVQAGGSLRLSCAASGSTFWYYTMGWYRPAPGKERELVAGITSGGSTYYADSVKGRFTISRDYANNTVYLQMNSLKPEDTAVYYCTFYWYNYWGQGTQVTVSS	high polyreactivity
QVQLVESGGGLVQAGGSLRLSCAASGPTFYYYAMGWYRQEPGKERELVAAIRVRGGSTYYADSVKGRFTISRDNAKNTVYLQMNSLKPEDTAVYYCAADHTFYGVHKYDYWGQGTQVTVSS	low polyreactivity
QVQLVESGGGLVQAGGSLRLSCAASGSTFVRNAMGWYRQAPGKERELVAAITSSGGSTYYADSVKGRFTISRDNAKNTVYLQMNSLKPVDTAVYYCNARVPPQGWGPWKAFDYWGQGTQVTVSS	low polyreactivity
QVQLVESGGGLVQAGGSLRLSCAASVSTFVVNAMGWYRQAPGKERELVAAISRSDAITYYADSVKGRFTISRDNAKNTVYLQMNSLKPEDTAVYYCAAELSYRGYPYDYWGQGTQVTVSS	high polyreactivity
